Reference: US11976099B2, “Compositions and methods for treatment of bone associated diseases” (THE NATIONAL INSTITUTE FOR BIOTECHNOLOGY IN THE NEGEV LTD., priority 2016, dated 2024)
Where a chain is given by its changes, count along the chain named. Names may count otherwise.

B1: M-CSFM: 158 amino acid M-CSF with cysteine at position 31 replaced by serine (SEQ ID NO: 2) (protein)
chain: EEVSEYCSHMIGSGHLQSLQRLIDSQMETSSQITFEFVDQEQLKDPVCYLKKAFLLVQDIMEDTMRFRDNTPNAIAIVQLQELSLRLKSCFTKDYEEHDKACVRTFYETPLQLLEKVKNVFNETKNLLDKDWNIFSKNCNNSFAECSSQGHERQSEGS
B2: M-CSFC31S,M27R: M-CSF double mutant containing both C31S and M27R; monomeric, monospecific c-FMS antagonist (protein)
chain: B1 chain with M27R
B3: 5.6: bispecific M-CSFRGD variant from sort five; M-CSFM loop replaced by XXXRGDXXX motif; binds c-FMS and αvβ3 integrin (protein)
chain: EEVSEYCSHMIGSGHLQSLQRLIDTYPRGDMCSITFEFVDQEQLKDPVCYLKKAFLLVQDIMEDTMRFRDNTPNAIAIVQLQELSLRLKSCFTKDYEEHDKACVRTFYETPLQLLEKVKNVFNETKNLLDKDWNIFSKNCNNSFAECSSQGHERQSEGS
modifications: left off: small tags and cut ends

Assays:
[1] = test system: human peripheral blood CD14+ monocytes differentiating to osteoclasts; test: Osteoclast differentiation assay of human CD14+ monocytes (TRAP staining); type: cell-based; settings: Example 14, CD14+ cells; for osteoclast formation: 50, 250, 1000 nM with M-CSFWT and RANKL
Text: Differentiation assay—BMMs and CD14+ cells were obtained and grown as described above. The plates containing the monocytes were washed with PBS; the cells were detached using a cell scraper for BMMs or Accutase (Biological industries, Israel) for CD14^+; and 2×10^4 BMMs or 1×10^4 CD14^+ cells were transferred to each well in a 96-well plate. Osteoclast differentiation was induced as described in the ‘phosphorylation assay’ section. To determine the influence of M-CSFC31S and the M-CSFC31S,M27R on osteoclast differentiation, the proteins were added to the differentiation medium (with M-CSF and RANKL) in different concentrations (50 nM, 1 μM and 5 μM for BMMs and 50 nM, 250 nM and 1 μM for CD14^+). To determine the influence of human M-CSFWT on the differentiation, it was added to the cells in different concentrations (50 nM 1 μM and 5 μM) without adding murine M-CSFWT. Once the cells were fully differentiated, they were fixed with 4% paraformaldehyde and stained using the tartrate-resistant acid phosphatase (TRAP) staining kit (Sigma-Aldrich, USA) according to the manufacturer's protocol. As the positive control, cells were incubated with M-CSF and RANKL without inhibitors, and the negative control was comprised of cells that were incubated in differentiation medium without RANKL. […] Cells in each image were counted in a double-blind manner, and the number of nuclei in the osteoclasts was determined using ImageJ software. For the positive control of BMMs, an average of 28.33 osteoclasts and 135 nuclei per well were counted. For CD14^+ positive control, the average numbers of osteoclasts and nuclei were 14.5 and 75, respectively, per well. The results for each parameter were normalized to the positive control values.
In light of the above-described decrease in phosphorylation, it was hypothesized that incubation of M-CSFC31S,M27R with differentiating monocytes would result in decreased formation of osteoclasts. To test this premise, either BMMs or CD14^+ cells were incubated with murine or human M-CSFWT (20 ng/ml), respectively, and murine RANKL (20 ng/ml) together with M-CSFC31S and M-CSFC31S,M27R at concentrations of 50 and 1000 and 5000 nM for BMMs and 50, 250, 1000 nM for CD 14^+ cells. The cells were allowed to differentiate for 96 h or until they reached full differentiation. In BMMs incubated with M-CSFC31S, osteoclasts formed rapidly, and therefore they differentiated only for 72 h. Then, the cells were stained with a tartrate-resistant acid phosphatase (TRAP) staining kit (FIGS. 19A, B). […] This inhibition of differentiation behavior was observed also for M-CSFWT.

[2] = test system: Murine bone marrow derived monocytes (BMMs); test: Direct cell binding assay, flow cytometry, murine primary cells; type: cell-based, mouse; settings: for direct cell binding: mouse primary cells, 1 μM, 2.5 μM and 7.5 μM
Method: Murine bone marrow derived monocytes (BMMs) were obtained by flushing the bone marrow from the femur and tibia of WT C57BL6 mice. The cells were treated with ACK red lysis buffer (Thermo Fisher Scientific, USA) and plated on bacterial culture dishes in αMEM growth medium (Biological Industries, Israel) containing recombinant murine M-CSF (40 ng/ml) (R&D systems, USA). The cells were incubated for 3 days at 37° C. under 5% CO2 to induce monocyte adhesion and proliferation. The plates were washed with PBS, the cells were detached using a cell scraper, and 10^5 cells were transferred to each well in a 96-well plate. The cells were washed twice with 200 μl of 0.1% PBSA. Binding was determined as described for labeled M-CSFM and the M-CSFRGD proteins. For murine c-FMS expression, anti-mouse CD115 (CSF-1R) (BioLegend, USA) was used at 1:50 concentration and detected with goat anti-rat (PE) antibody (Abcam, USA). For αvβ3 integrin expression, the Alexa Fluor® 488 anti-mouse/rat CD61 (BioLegend, USA) antibody was used as previously described. Samples were analyzed with Accuri C6 flow cytometry analyzer (BD Biosciences, USA). The experiment was repeated three times at each concentration.
Assays for direct cell binding were conducted on breast cancer cell line MDA-MB-231 and murine primary cells with flow cytometer. MDA-MB-231 was used because the cells express αvβ3 integrin and c-FMS on the cell membrane, a protein expression pattern that imitates the osteoclast state just before reaching full differentiation and maturation. […] Murine primary cells that were obtained from bone marrow were tested for binding without any induction of differentiation (t=0). Such cells express high levels of c-FMS and low levels of αvβ3 integrin (FIGS. 11A and 11B), a state that imitates an early osteoclast differentiation stage.

Molecule	number of osteoclasts and number of nuclei [1]	osteoclast formation [1]	direct cell binding [2]	relative cell binding ([2]; no induction of differentiation (t=0))
B1	the opposite result	highly accelerated in the two lower concentrations	binding in a dose dependent manner	stronger cell binding than 5.6 and 4.22
B2	a decrease in both parameters, in a dose-dependent manner	significantly inhibited, in a dose-dependent manner		
B3			binding in a dose dependent manner	
